In patent publication US9884094B2, “Method of treating diabetes mellitus” (Novo Nordisk A/S, priority 2012, dated 2018):

Experiments:
[1] = Hydrophobicity k′rel by RP-HPLC relative to human insulin; format: physicochemical; settings: LiChrosorb RP18, isocratic, 40° C., pH 7.3
Experimental: The elution was monitored by following the UV absorption of the eluate at 214 nm. Void time, t0, was found by injecting 0.1 mM sodium nitrate.

human insulin receptor = human insulin receptor (Homo sapiens, UniProt P06213); assay: Insulin receptor binding, SPA antibody capture assay (Assay I); settings: recombinant human insulin receptor, A14 Tyr[125I]-human insulin
Experimental: A total of 100 μl was then added and a dilution series is made from appropriate samples. […] The phases were the then separated by centrifugation for 1 min and the plates counted in a Topcounter. The binding data were fitted using the nonlinear regression algorithm in the GraphPad Prism 2.01 (GraphPad Software, San Diego, Calif.).
Specific antibodies (F12) were produced by monoclonal technique: RBF mice were immunized by injecting 50 μg of purified mIR in FCA subcutaneously followed by two injections with 20 μg of mIR in FIA. […] Supernatants were screened for antibody production in a mIR specific ELISA. Positive wells were cloned and tested in Western blotting.

Chain of human insulin receptor (P06213 28-1370 isoform P06213-2 limits assumed): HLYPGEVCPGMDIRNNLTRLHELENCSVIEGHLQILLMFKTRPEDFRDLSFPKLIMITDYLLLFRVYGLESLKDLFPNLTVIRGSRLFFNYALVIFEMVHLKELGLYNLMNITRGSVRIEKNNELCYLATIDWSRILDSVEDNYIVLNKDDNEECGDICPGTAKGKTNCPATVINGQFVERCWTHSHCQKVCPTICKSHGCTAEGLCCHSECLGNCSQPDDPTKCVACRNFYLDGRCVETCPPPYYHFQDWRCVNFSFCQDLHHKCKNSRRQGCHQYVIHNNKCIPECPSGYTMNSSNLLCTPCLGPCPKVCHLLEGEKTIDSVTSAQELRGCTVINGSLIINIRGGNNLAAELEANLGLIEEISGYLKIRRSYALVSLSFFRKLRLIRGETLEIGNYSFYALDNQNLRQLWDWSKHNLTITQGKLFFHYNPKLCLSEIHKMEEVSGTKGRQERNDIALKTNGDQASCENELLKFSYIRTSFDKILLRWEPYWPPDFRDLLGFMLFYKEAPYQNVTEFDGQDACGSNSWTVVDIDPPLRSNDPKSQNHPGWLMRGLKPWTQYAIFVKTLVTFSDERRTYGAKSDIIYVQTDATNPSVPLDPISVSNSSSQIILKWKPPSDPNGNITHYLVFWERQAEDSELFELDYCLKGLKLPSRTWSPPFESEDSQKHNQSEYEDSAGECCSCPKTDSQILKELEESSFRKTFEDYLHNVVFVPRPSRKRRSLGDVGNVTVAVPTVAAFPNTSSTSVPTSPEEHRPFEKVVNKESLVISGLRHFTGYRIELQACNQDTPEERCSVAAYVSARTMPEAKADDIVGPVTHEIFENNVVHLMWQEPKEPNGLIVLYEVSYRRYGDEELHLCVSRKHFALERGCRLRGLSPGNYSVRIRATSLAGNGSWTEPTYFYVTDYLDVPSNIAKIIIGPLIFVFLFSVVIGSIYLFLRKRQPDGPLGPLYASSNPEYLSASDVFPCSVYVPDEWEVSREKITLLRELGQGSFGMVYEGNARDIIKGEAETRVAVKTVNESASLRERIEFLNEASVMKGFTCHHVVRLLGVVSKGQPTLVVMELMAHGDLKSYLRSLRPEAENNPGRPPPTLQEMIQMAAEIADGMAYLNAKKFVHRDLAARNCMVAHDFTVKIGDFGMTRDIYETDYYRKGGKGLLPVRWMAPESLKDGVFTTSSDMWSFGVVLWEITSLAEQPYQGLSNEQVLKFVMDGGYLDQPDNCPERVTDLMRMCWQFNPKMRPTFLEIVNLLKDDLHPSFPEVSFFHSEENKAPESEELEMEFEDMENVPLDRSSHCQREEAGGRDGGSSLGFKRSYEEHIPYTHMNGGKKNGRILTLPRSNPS

| Receptor binding (% of human insulin) (human insulin receptor) | Substance | k′rel (hydrophobic index relative to human insulin) [1] |
| --- | --- | --- |
| 20 % of human insulin | N^εB29—(N-(L-Sar-OC(CH2)13CO-γ-L-Glu) des(B30) Human Insulin | 0.63 |
| 5.7 % of human insulin | N^εB29—(N—(HOOC(CH2)14CO-ε-L-LysCO—) des(B30) Human Insulin | 0.90 |
| 9.2 % of human insulin | NεB29-(Nα—(HOOC(CH2)16CO)-γ-Glu) des(B30) Human Insulin | 1.15 |

The remaining lines, values behind:

| Substance | Receptor binding (% of human insulin) (human insulin receptor) | k′rel (hydrophobic index relative to human insulin) [1] |
| --- | --- | --- |
| N^εB29—(N-(L-Glu-OC(CH2)14CO—) des(B30) Human Insulin | 9.4 % of human insulin | 1.17 |
| N^εB29—(N^α—(HOOC(CH2)16CO)-γ-Glu-N-(γ-Glu)) des(B30) Human Insulin | – | 1.17 |
| N^εB29—[N—(HOOC(CH2)16CO)—N-(carboxymethyl)-β-Ala] des(B30) Human Insulin | 9.4 % of human insulin | – |
